Columns and labels:
[1] = target: T1, human CTLA-4 (human, UniProt P16410 36-161, limits assumed); assay: ligand blocking assay with purified proteins; competitor CD80
T1 construct: also called HuCTLA-4; human cytotoxic T lymphocyte antigen-4
T1 sequence: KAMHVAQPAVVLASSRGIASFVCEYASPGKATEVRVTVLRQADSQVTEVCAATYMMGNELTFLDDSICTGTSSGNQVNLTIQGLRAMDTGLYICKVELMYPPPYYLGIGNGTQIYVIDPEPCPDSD

[2] = target: T1, human CTLA-4; assay: ligand blocking assay with purified proteins; competitor CD86
[3] = target: T2, CTLA4-Fc (UniProt P16410 36-161, limits assumed); assay: cell-based or functional assay
T2 sequence (looked up): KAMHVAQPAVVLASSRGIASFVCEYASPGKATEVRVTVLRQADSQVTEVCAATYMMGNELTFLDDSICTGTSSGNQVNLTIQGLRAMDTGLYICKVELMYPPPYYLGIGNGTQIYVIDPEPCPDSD

[4] = target: T1, human CTLA-4; assay: ratio of the IC50 for blocking CD80 to the IC50 for blocking CD86 on CTLA-4
[5] = target: T3, cyno Macaque CTLA-4 (cyno Macaque, UniProt G7PL88 36-161); assay: ELISA, cyno CTLA-4 binding
T3 construct: ELISA antigen; construct not described; also called CynoCTLA-4; cyno CTLA-4
T3 sequence: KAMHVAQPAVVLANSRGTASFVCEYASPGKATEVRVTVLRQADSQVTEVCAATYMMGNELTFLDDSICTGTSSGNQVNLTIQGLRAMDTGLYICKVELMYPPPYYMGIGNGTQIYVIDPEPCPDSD

[6] = target: T1, human CTLA-4; assay: ELISA, human CTLA-4 binding
[7] = target: T4, murine CTLA-4 (murine, UniProt P09793 36-161, limits assumed); assay: ELISA, murine CTLA-4 binding assay
T4 construct: ELISA antigen; construct not described; also called mouse CTLA-4

[8] = target: T5, CTLA4-his (UniProt P16410 36-161, limits assumed); assay: SPR Biacore T200, antibody from supernatant captured by anti-human Fc, CTLA4-his injected
T5 construct: construct not described; also called Ag CTLA4-his; Antigen CTLA4-his; not shown: his tag
T5 sequence (looked up): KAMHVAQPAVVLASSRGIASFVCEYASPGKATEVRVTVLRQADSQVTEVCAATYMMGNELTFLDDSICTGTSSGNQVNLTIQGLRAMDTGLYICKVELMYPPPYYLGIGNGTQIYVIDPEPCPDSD
Protocol: Affinity ranking of the fifteen humanized antibodies was determined using a Surface Plasmon Resonance (SPR) biosensor, Biacore T200 (GE Healthcare). Anti-human Fc gamma specific antibody was immobilized onto the sensor chip using amine coupling method. […] After equilibration, Ag CTLA4-his was injected for 300 seconds (association phase) followed by the injection of running buffer for 600s (dissociation phase). Responses of reference flow cell (flow cell 1) were subtracted from those of humanized antibodies flow cells during each cycle. The surface was regenerated before the injection of other humanized antibodies. The process was repeated until all antibodies are analyzed. The off-rates of humanized antibodies were obtained from fitting the experimental data locally to 1:1 interaction model using the Biacore 8K evaluation software. The antibodies were ranked by their dissociation rate constants (off-rates, kd).

| Kd [8] | koff [8] | kon [8] | further results | Binder |
| --- | --- | --- | --- | --- |
|  |  |  | IC50 [1]: 0.641 nM; IC50 [2]: 0.271 nM; IC50 (nM), IL-2 secreted by Jurkat cells co-cultured with CHO/CD80 cells, Experiment 1 [3]: 27.3 nM; IC50 (nM), IL-2 secreted by Jurkat cells co-cultured with CHO/CD80 cells, Experiment 2 [3]: 16.6 nM; CD80/CD86 Blocking Ratio [4]: 2.37; EC50 [5]: 0.045 nM; EC50 [6]: 0.049 nM; binding result [7]: no binding | MAb A5 (32G4C12) (antibody, V domains shown, also called murine antibody A5) VH: QVQLQQSGPELVRPGASVKLSCKASGYTFTTYDINWVKQRPGQGLEWIGWIYPRDGSIIFNEKFKGKATLTVDTTSSTAYMELHSLTSEDSAVYFCARRGLLGPLDYWGQGTPLTVSS VL: DIVMTQSHKFMSTSVGDRVSITCKASQDVATTVAWYQQKPGQSPKLVIYWASTRHTGVPDRFTGSGSGTDFTLTISNVQSEDLADYFCQQYSSYPTFGVGTKLELK |
| 0.791 nM | 0.000523 s⁻¹ | 661000 M⁻¹ s⁻¹ |  | Humanized Ab 8 (VH3 + VL2) (antibody, human IgG1, kappa, V domains shown, Humanized IgG1 derived from MAb A4, full length, HEK293) VH: QVQLVQSGAEVKKPGASVKVSCKASGYKFTDHFINWVKQAPGQGLEWIGDINPNNGGTNSNQKFEGRVTLTVDTSISTAYMELSRLRSDDTAVYYCARLRREYFYAMDYWGQGTLVTVSS VL: DIVMTQSPLSLPVTPGEPASISCRSSKSLLHSNGITYLYWYLQKPGQSPQLLIYQMSNLASGVPDRFSSSGSGTDFTLKISRVEAEDVGVYYCAQNLELPLTFGGGTKVEIKR |
| 1.2 nM | 0.000338 s⁻¹ | 281000 M⁻¹ s⁻¹ |  | Humanized Ab 1 (VH1 + VL1) (antibody, human IgG1, kappa, V domains shown, Humanized IgG1 derived from MAb A4, full length, HEK293) VH: QVQLVQSGAEVKKPGASVKVSCKASGYKFTDHFINWVRQAPGQGLEWMGDINPNNGGTNSNQKFEGRVTMTRDTSISTAYMELSRLRSDDTAVYYCARLRREYFYAMDYWGQGTLVTVSS VL: DIVMTQSPLSLPVTPGEPASISCRSSKSLLHSNGITYLYWYLQKPGQSPQLLIYQMSNLASGVPDRFSGSGSGTDFTLKISRVEAEDVGVYYCAQNLELPLTFGGGTKVEIKR |
| 1 nM | 0.000351 s⁻¹ | 350000 M⁻¹ s⁻¹ |  | Humanized Ab 2 (VH1 + VL2) (antibody, human IgG1, kappa, Humanized IgG1 derived from MAb A4, full length, HEK293) heavy: not shown light: DIVMTQSPLSLPVTPGEPASISCRSSKSLLHSNGITYLYWYLQKPGQSPQLLIYQMSNLASGVPDRFSSSGSGTDFTLKISRVEAEDVGVYYCAQNLELPLTFGGGTKVEIKRTVAAPSVFIFPPSDEQLKSGTASVVCLLNNFYPREAKVQWKVDNALQSGNSQESVTEQDSKDSTYSLSSTLTLSKADYEKHKVYACEVTHQGLSSPVTKSFNRGEC |
| 1.17 nM | 0.000437 s⁻¹ | 375000 M⁻¹ s⁻¹ |  | Humanized Ab 3 (VH1 + VL3) (antibody, human IgG1, kappa, Humanized IgG1 derived from MAb A4, full length, HEK293) heavy: not shown light: DIVMTQSPLSLPVTPGEPASISCRSSKSLLHSNGITYLYWYLQKPGQSPQLLIYQMSNLASGVPDRFSSSGSGTDFTLKISRVEAEDVGVYYCAQNLELPLTFGGGTKLEIKRTVAAPSVFIFPPSDEQLKSGTASVVCLLNNFYPREAKVQWKVDNALQSGNSQESVTEQDSKDSTYSLSSTLTLSKADYEKHKVYACEVTHQGLSSPVTKSFNRGEC |
| 0.83 nM | 0.000611 s⁻¹ | 736000 M⁻¹ s⁻¹ |  | Humanized Ab 4 (VH2 + VL1) (antibody, human IgG1, kappa, V domains shown, Humanized IgG1 derived from MAb A4, full length, HEK293) VH: QVQLVQSGAEVKKPGASVKVSCKASGYKFTDHFINWVRQAPGQGLEWIGDINPNNGGTNSNQKFEGRVTMTVDTSISTAYMELSRLRSDDTAVYYCARLRREYFYAMDYWGQGTLVTVSS VL: DIVMTQSPLSLPVTPGEPASISCRSSKSLLHSNGITYLYWYLQKPGQSPQLLIYQMSNLASGVPDRFSGSGSGTDFTLKISRVEAEDVGVYYCAQNLELPLTFGGGTKVEIKR |
| 1.12 nM | 0.000345 s⁻¹ | 309000 M⁻¹ s⁻¹ |  | Humanized Ab 5 (VH2 + VL2) (antibody, human IgG1, kappa, Humanized IgG1 derived from MAb A4, full length, HEK293) heavy: not shown light: DIVMTQSPLSLPVTPGEPASISCRSSKSLLHSNGITYLYWYLQKPGQSPQLLIYQMSNLASGVPDRFSSSGSGTDFTLKISRVEAEDVGVYYCAQNLELPLTFGGGTKVEIKRTVAAPSVFIFPPSDEQLKSGTASVVCLLNNFYPREAKVQWKVDNALQSGNSQESVTEQDSKDSTYSLSSTLTLSKADYEKHKVYACEVTHQGLSSPVTKSFNRGEC |
| 1.16 nM | 0.000347 s⁻¹ | 300000 M⁻¹ s⁻¹ |  | Humanized Ab 6 (VH2 + VL3) (antibody, human IgG1, kappa, Humanized IgG1 derived from MAb A4, full length, HEK293) heavy: not shown light: DIVMTQSPLSLPVTPGEPASISCRSSKSLLHSNGITYLYWYLQKPGQSPQLLIYQMSNLASGVPDRFSSSGSGTDFTLKISRVEAEDVGVYYCAQNLELPLTFGGGTKLEIKRTVAAPSVFIFPPSDEQLKSGTASVVCLLNNFYPREAKVQWKVDNALQSGNSQESVTEQDSKDSTYSLSSTLTLSKADYEKHKVYACEVTHQGLSSPVTKSFNRGEC |
| 0.956 nM | 0.000434 s⁻¹ | 454000 M⁻¹ s⁻¹ |  | Humanized Ab 7 (VH3 + VL1) (antibody, human IgG1, kappa, V domains shown, Humanized IgG1 derived from MAb A4, full length, HEK293) VH: QVQLVQSGAEVKKPGASVKVSCKASGYKFTDHFINWVKQAPGQGLEWIGDINPNNGGTNSNQKFEGRVTLTVDTSISTAYMELSRLRSDDTAVYYCARLRREYFYAMDYWGQGTLVTVSS VL: DIVMTQSPLSLPVTPGEPASISCRSSKSLLHSNGITYLYWYLQKPGQSPQLLIYQMSNLASGVPDRFSGSGSGTDFTLKISRVEAEDVGVYYCAQNLELPLTFGGGTKVEIKR |
| 0.852 nM | 0.000288 s⁻¹ | 338000 M⁻¹ s⁻¹ |  | Humanized Ab 10 (VH4 + VL1) (antibody, human IgG1, kappa, V domains shown, Humanized IgG1 derived from MAb A4, full length, HEK293) VH: QVQLVQSGAEVKKPGASVKISCKASGYKFTDHFINWVKQAPGQGLEWIGDINPNNGGTNSNQKFEGRATLTVDTSISTAYMELSRLRSDDTAVYYCARLRREYFYAMDYWGQGTLVTVSS VL: DIVMTQSPLSLPVTPGEPASISCRSSKSLLHSNGITYLYWYLQKPGQSPQLLIYQMSNLASGVPDRFSGSGSGTDFTLKISRVEAEDVGVYYCAQNLELPLTFGGGTKVEIKR |
| 0.435 nM | 0.000397 s⁻¹ | 913000 M⁻¹ s⁻¹ |  | Humanized Ab 12 (VH4 + VL3) (antibody, human IgG1, kappa, Humanized IgG1 derived from MAb A4, full length, HEK293) heavy: not shown light: DIVMTQSPLSLPVTPGEPASISCRSSKSLLHSNGITYLYWYLQKPGQSPQLLIYQMSNLASGVPDRFSSSGSGTDFTLKISRVEAEDVGVYYCAQNLELPLTFGGGTKLEIKRTVAAPSVFIFPPSDEQLKSGTASVVCLLNNFYPREAKVQWKVDNALQSGNSQESVTEQDSKDSTYSLSSTLTLSKADYEKHKVYACEVTHQGLSSPVTKSFNRGEC |
| 0.542 nM | 0.00016 s⁻¹ | 295000 M⁻¹ s⁻¹ |  | Humanized Ab 13 (VH5 + VL3) (antibody, human IgG1, kappa, V domains shown, Humanized IgG1 derived from MAb A4, full length, HEK293) VH: QVQLVQSGAEVVKPGASVKISCKASGYKFTDHFINWVKQNPGQGLEWIGDINPNNGGTNSNQKFEGRATLTVDTSISTAYMELSRLRSDDTAVYYCARLRREYFYAMDYWGQGTLVTVSS VL: DIVMTQSPLSLPVTPGEPASISCRSSKSLLHSNGITYLYWYLQKPGQSPQLLIYQMSNLASGVPDRFSSSGSGTDFTLKISRVEAEDVGVYYCAQNLELPLTFGGGTKLEIKR |
|  |  |  | IC50 [1]: 12.8 nM; IC50 [2]: 1.61 nM; IC50 (nM), IL-2 secreted by Jurkat cells co-cultured with CHO/CD80 cells, Experiment 1 [3]: 26.4 nM; IC50 (nM), IL-2 secreted by Jurkat cells co-cultured with CHO/CD80 cells, Experiment 2 [3]: 22.3 nM; CD80/CD86 Blocking Ratio [4]: 7.91; EC50 [5]: 0.01 nM; EC50 [6]: 0.077 nM; binding result [7]: no binding | MAb A2 (7G10D3) (antibody, V domains shown, also called murine antibody A2) VH: QIQLVQSGPELKKPGETVKISCKASGYTFTTYGMSWVKQTPGKGLKWMGWINTYSGVPTYADDFKGRFAFSLETSASTAYLQINNLKNEDTATYFCARGRDYYGSSYRLFGVWGTGTTVTVSS VL: DIQMTQTTSSLSASLGDRVTISCRASQDISNYLNWYQQKPDGTVKLLIYYTSILNSGVPSKFSGSGSGTDYSLTISNLEQEDIATYFCQQGNTLPWTFGGGTKLEIK |
